Reference: article PMC6274998, “Mycobacterium tuberculosis ClpC1 N-Terminal Domain Is Dispensable for Adaptor Protein-Dependent Allosteric Regulation” (International Journal of Molecular Sciences, 2018)

What was measured:
[1] = target: ClpS (Escherichia coli) (UniProt P0A8Q6); settings: cited from earlier work
[2] = target: ClpS (additional molecules) (Escherichia coli) (UniProt P0A8Q6); settings: cited from earlier work
[3] = target: full-length Mycobacterium tuberculosis ClpC1 (Mycobacterium tuberculosis H37Rv) (UniProt P9WPC9)
[4] = target: T1, full-length Mycobacterium tuberculosis ClpC1 (Mycobacterium tuberculosis H37Rv, UniProt P9WPC9 1-848); assay: pull-down; settings: both partners purified
T1 construct: ClpC1 AAA+ ATPase, M. tuberculosis H37Rv, Rv3596c, full length; also called wild-type M. tuberculosis ClpC1; Full-Length ClpC1; not shown: His6-SUMO, N-terminal, cleaved
T1 sequence (P9WPC9 whole entry): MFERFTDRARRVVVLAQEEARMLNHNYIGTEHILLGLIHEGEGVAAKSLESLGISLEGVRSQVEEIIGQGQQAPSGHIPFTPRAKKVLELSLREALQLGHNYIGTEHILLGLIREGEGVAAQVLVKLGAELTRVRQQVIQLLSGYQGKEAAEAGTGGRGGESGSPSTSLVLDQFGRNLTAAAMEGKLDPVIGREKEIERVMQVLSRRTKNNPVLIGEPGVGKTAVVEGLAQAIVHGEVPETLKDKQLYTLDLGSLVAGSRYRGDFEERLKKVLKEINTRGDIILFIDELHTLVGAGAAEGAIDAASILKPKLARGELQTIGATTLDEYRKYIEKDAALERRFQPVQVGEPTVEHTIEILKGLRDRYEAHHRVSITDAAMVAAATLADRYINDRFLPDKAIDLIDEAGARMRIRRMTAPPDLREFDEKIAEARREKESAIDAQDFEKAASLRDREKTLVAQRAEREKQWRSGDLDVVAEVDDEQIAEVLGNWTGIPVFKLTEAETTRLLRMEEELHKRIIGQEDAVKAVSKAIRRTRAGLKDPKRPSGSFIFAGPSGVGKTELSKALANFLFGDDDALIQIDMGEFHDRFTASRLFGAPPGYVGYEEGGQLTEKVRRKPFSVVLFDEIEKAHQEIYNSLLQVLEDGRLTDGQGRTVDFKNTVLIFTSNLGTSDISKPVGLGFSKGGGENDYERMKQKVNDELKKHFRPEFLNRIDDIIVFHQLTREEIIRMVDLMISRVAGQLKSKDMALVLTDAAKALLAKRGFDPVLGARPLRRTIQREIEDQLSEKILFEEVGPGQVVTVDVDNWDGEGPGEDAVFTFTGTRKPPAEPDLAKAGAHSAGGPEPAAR

full-length Mycobacterium tuberculosis ClpC1 (Mycobacterium tuberculosis H37Rv), sequence (P9WPC9 whole entry): as above
ClpS (additional molecules) (Escherichia coli), sequence (P0A8Q6 whole entry): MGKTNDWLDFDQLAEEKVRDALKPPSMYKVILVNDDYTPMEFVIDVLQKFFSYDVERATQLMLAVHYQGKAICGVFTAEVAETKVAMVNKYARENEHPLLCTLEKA
ClpS (Escherichia coli), sequence (P0A8Q6 whole entry): as above

Question: What does the source list for ClpA (from UniProt P0ABH9)?
Answer: Kd [1]: 40 nM; Kd [2]: > 700 nM

B1: Mycobacterium tuberculosis ClpS (His6-SUMO tag removed) (natural protein)
chain: MAVVSAPAKPGTTWQRESAPVDVTDRAWVTIVWDDPVNLMSYVTYVFQKLFGYSEPHATKLMLQVHNEGKAVVSAGSRESMEVDVSKLHAAGLWATMQQDR
Question: Which results are given for B1?
Answer: average binding stoichiometry inferred from k (UF,app) against [ClpS]T/[ClpC1]T, stopped-flow unfolding of SsrA-KaedeRed (ClpC1 subunits per ClpS) [3]: 2; inflection point of k (UF,app) against the ratio of total ClpS to total ClpC1 monomer concentration, stopped-flow unfolding of SsrA-KaedeRed ([ClpS]T/[ClpC1]T) [3]: 0.65

B2: His6-SUMO-ClpS (Mycobacterium tuberculosis ClpS adaptor protein, His6-SUMO fusion) (natural protein)
chain: B1 chain
notes: also called His6-ClpS; His6-tagged ClpS; not shown: His6, N-terminal, kept; SUMO, N-terminal, kept
Question: Does B2 bind [4]?
Answer: binds
